Reference: patent US11707527B2, “Nanoscale drug carrier capable of passing through blood-brain barrier” (KUNSHAN XINYUNDA BIOTECH CO., LTD., priority 2017, dated 2023)

Assays:
[1] = system: human BBB brain endothelial cells hCMEC/D3; assay: Endocytosis and lysosome co-localization in human brain endothelial cells (confocal microscopy); format: cell-based; conditions: hCMEC/D3, 4 h incubation
Method: Human BBB brain endothelial cells hCMEC/D3 slides (BD Biosciences) were placed in a 6-well plate (with well diameter of 34.8 mm, Corning, USA) for culturing above to a density of about 60%, then the experiment was conducted. 1 μM FITC-labeled H-ferritin above was added, and incubated respectively for 5 min and 6 min at 37° C. Then the cells were washed with 0.3% BSA/PBS for three times, and finally fixed with 4% paraformaldehyde. After being washed with PBS (pH7.4) for three times, cell nuclei were stained with DAPI (Roche Applied Science) 10 min at room temperature. After being washed by PBS for three times again, the slides were mounted with a mounting medium, and observed by laser confocal microscopy (Olympus FluoView FV-1000, Tokyo, Japan).
Human BBB brain endothelial cells hCMEC/D3 slides (BD Biosciences) were placed in a 6-well plate for culturing to a density of about 60%, and then the experiment was conducted. […] The cells were fixed with 4% paraformaldehyde after being washed with PBS for three times. Then 0.1% Triton X-100 was used for cell permeabilization After being washed with PBS again, the cells were blocked in 5% goat serum (ZSGB-BIO) 30 min at room temperature, and then incubated in Alexa Fluor®555-labeled antibodies and lysosome marker molecules LAMP1 (1:200, clone H4A3; Invitrogen) for 1 h at 37° C. […]

[2] = system: human BBB brain endothelial hCMEC/D3 cells; assay: Specific binding of FITC-labeled ferritin to human brain endothelial cells (flow cytometry); format: cell-based; conditions: 50 μg/ml FITC-labeled protein, 45 min, 4° C., hCMEC/D3, vs FITC-BSA
Method: Human BBB brain endothelial hCMEC/D3 cells were cultured to about 1×10^5 (100×20 mm, dish Corning, USA) and digested with trypsin, then the cells were washed with 0.3% (w/v) BSA/PBS (pH7.4) for three times. […] The cells were washed with 0.3% BSA/PBS for three times, finally resuspended in PBS (pH7.4). And fluorescence of the samples was tested by flow cytometry (at a wavelength of 488 nm).

hCMEC/D3 BBB model = assay: In vitro BBB model (Transwell) transcytosis; format: in vitro ADME, human; conditions: 50 μg/mL FITC-labeled, 6 h, upper to lower chamber
Method: The cells were cultured at 37° C. under CO2 in an incubator to confluence (2-3d). After the confluence state of hCMEC/D3 was observed by a microscope, medium (EBM-2 medium) was added to an upper chamber of the Transwell plate, resulting a more than 0.5 cm difference of liquid level between the upper and lower chamberst. If an obvious difference between the two chambers can be still observed after 4 h, it was regarded as completely confluent. The wells of Transwell without inoculated cells were used as a blank control.
Equal amount (50 μg/mL) of FITC-labeled H-ferritins and the control FITC-labeled BSA were dissolved in EBM-2 medium (Gibco Life Technologies Inc., UK). […] The total volume (V) of the lower chamber was measured after being cultured for 6 h in a cell incubator. And then, 50 μL samples were respectively taken out of the lower chamber, and H-ferritin or BSA concentration (C) was measured by measuring fluorescence intensity (wavelength 488 nm). Afterwards, transcytosis efficiency was calculated according to the following formula: transcytosis efficiency %=(Clower chamber×Vlower chamber)/(Cinitial×Vinitial)×100%.

B1: chimeric human H-ferritin: human L-ferritin with outer surface sequences replaced with SEQ ID NO: 1-3 of H-ferritin; SEQ ID NO: 7 (protein)
chain: MTSQVRQNYHQDSEAAINRQINLELYASYVYLSMSYYFDRDDVALEGVSHFFRELAEEKREGYERLLKMQNQRGGRIFLQDIKKPDCDDWESGLNAMECALHLEKNVNQSLLELHKLATDKNDPHLCDFLETHFLDEEVKLIKKMGDHVTNLRKMGAPESGLAEYLFERLTLKHD
modifications: chimeric human H ferritin
entering / co-localization with lysosome (LAMP1) in brain endothelial cells [1]: did not co-localize with the lysosome | specific binding with human brain endothelial cells [2]: can still achieve specific binding | crossing the in vitro BBB model (transcytosis efficiency) (hCMEC/D3 BBB model): can significantly cross the blood brain barrier
